Experimental data from paper PMC10149471, “Assessing the applicability of ^19F labeled tryptophan residues to quantify protein dynamics” (Journal of Biomolecular Nmr, 2023).

B4: Dcp1 from S. pombe, residues 1-127 (natural protein, UniProt Q9P805 1-127, looked up)
chain: MEDENILRNAVNLQVLKFHYPEIESIIDIASHVAVYQFDVGSQKWLKTSIEGTFFLVKDQRARVGYVILNRNSPENLYLFINHPSNVHLVDRYLIHRTENQHVVGLWMFDPNDMSRIFNIVKESLLR
notes: Dcp1, S. pombe, UniProt Q9P805, residues 1-127; also called internal ID 48; source: E. coli BL21(DE3) CodonPlus-RIL, purified (Ni-NTA, TEV cleavage, second Ni-NTA, SEC)

How the values were obtained:
Assay in all cases: NMR spectra of a prepared complex; Dcp1 and Dcp2 expressed separately, complex prepared with one partner NMR active; 303 K; 125 mM NaCl, 25 mM HEPES, pH 7.3, 1 mM DTT; 100-500 uM protein
Settings in all cases: both partners purified
[1] = target: T1, Dcp1 from S. pombe, residues 1-127, 15N and 5-fluorotryptophan labeled (S. pombe, UniProt Q9P805 1-127, 5-fluorotryptophan at Trp 45 and 107)
T1 construct: Dcp1, S. pombe, UniProt Q9P805, residues 1-127; the tryptophans are replaced with 5-fluorotryptophan; also called 5-fluorotryptophan labeled Dcp1; source: E. coli BL21(DE3) CodonPlus-RIL with 5-fluoroindole added, purified (Ni-NTA, TEV cleavage, second Ni-NTA, SEC)
T1 sequence (looked up): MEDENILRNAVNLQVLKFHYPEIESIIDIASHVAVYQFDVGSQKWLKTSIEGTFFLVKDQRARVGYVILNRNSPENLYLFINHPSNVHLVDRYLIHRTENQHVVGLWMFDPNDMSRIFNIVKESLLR

[2] = target: B4
[3] = target: T2, Dcp2 from S. pombe, regulatory and catalytic domains, residues 1-243, 5-fluorotryptophan labeled (S. pombe, UniProt O13828 1-243, the seven tryptophan residues are replaced with 5-fluorotryptophan)
T2 construct: Dcp2, S. pombe, residues 1-243 (NRD 1-95 and catalytic NUDIX domain 96-243); also used with isoleucine and methionine methyl 13C labeling; also called 5-fluorotryptophan labeled Dcp2-NRD-CTD; source: E. coli BL21(DE3) CodonPlus-RIL with 5-fluoroindole added, purified (Ni-NTA, TEV cleavage, second Ni-NTA, SEC)
T2 sequence (looked up): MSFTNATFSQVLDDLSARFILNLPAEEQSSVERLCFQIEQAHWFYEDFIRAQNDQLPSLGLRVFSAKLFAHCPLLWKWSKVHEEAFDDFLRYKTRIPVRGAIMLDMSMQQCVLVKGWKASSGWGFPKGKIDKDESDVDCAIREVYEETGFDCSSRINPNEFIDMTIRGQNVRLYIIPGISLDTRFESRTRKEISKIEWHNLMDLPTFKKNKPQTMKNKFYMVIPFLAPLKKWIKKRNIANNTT

[4] = target: T3, Dcp2 from S. pombe, regulatory and catalytic domains, residues 1-243 (S. pombe, UniProt O13828 1-243)
T3 construct: Dcp2, S. pombe, residues 1-243 (NRD 1-95 and catalytic NUDIX domain 96-243); also called Dcp2-NRD-CTD; internal ID 223; source: E. coli BL21(DE3) CodonPlus-RIL, purified (Ni-NTA, TEV cleavage, second Ni-NTA, SEC)
T3 sequence (looked up): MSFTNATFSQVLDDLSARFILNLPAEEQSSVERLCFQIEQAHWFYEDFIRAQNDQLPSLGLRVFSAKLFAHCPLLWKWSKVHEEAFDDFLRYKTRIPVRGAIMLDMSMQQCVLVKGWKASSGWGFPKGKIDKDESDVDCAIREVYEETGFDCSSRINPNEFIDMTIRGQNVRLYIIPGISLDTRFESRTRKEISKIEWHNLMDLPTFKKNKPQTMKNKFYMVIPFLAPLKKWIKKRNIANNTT

B1: Dcp2 from S. pombe, N-terminal regulatory domain, residues 1-95 (domain or fragment, UniProt O13828 1-95, looked up)
chain: MSFTNATFSQVLDDLSARFILNLPAEEQSSVERLCFQIEQAHWFYEDFIRAQNDQLPSLGLRVFSAKLFAHCPLLWKWSKVHEEAFDDFLRYKTR
notes: Dcp2, S. pombe, residues 1-95 (N-terminal regulatory domain); Used unlabeled or 15N labeled, depending on the sample; also called Dcp2 NRD; NRD of Dcp2; source: E. coli BL21(DE3) CodonPlus-RIL, purified (Ni-NTA, TEV cleavage, second Ni-NTA, SEC)
binding result [1]: binds | binding result [2]: binds

B2: Dcp2 from S. pombe, residues 1-95, W43A assignment mutant (domain or fragment, UniProt O13828 1-95, looked up)
chain: MSFTNATFSQVLDDLSARFILNLPAEEQSSVERLCFQIEQAHAFYEDFIRAQNDQLPSLGLRVFSAKLFAHCPLLWKWSKVHEEAFDDFLRYKTR
notes: Dcp2, S. pombe, residues 1-95 with W43A; also called Dcp2 NRD W43A; internal ID 1070; source: E. coli BL21(DE3) CodonPlus-RIL, purified (Ni-NTA, TEV cleavage, second Ni-NTA, SEC)
binding result [2]: binds

B3: Dcp2 from S. pombe, N-terminal regulatory domain, residues 1-95, 5-fluorotryptophan labeled (domain or fragment, UniProt O13828 1-95, looked up)
chain: MSFTNATFSQVLDDLSARFILNLPAEEQSSVERLCFQIEQAHWFYEDFIRAQNDQLPSLGLRVFSAKLFAHCPLLWKWSKVHEEAFDDFLRYKTR
modifications: 5-fluorotryptophan at the three tryptophan residues (W43 among them)
notes: Dcp2, S. pombe, residues 1-95 (N-terminal regulatory domain); also called 5-fluorotryptophan labeled Dcp2 NRD; source: E. coli BL21(DE3) CodonPlus-RIL with 5-fluoroindole added, purified (Ni-NTA, TEV cleavage, second Ni-NTA, SEC)
binding result [2]: binds

B4
binding result [3]: binds | binding result [4]: binds
